From patent US11499162B2, “Plants having increased tolerance to herbicides” (BASF SE, priority 2016, dated 2022)

Format: biochemical
Settings: pH 7.2
Method in brief: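 E. coli resting cells expressing His-tagged TriA incubated with azines, melamine or atrazine. Enzyme in 25 mM sodium phosphate pH 7.2 at 30 °C, substrate 1–10 nM. Loss of parent and formation of OH-metabolite followed by UPLC-HR-MS; % degradation relative to empty-vector cells.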

| Molecule | Degradation in % of 6-cyclopentyl-N4-(2,3,4,5,6-pentafluorophenyl)-1,3,5-triazine-2,4-diamine | Degradation in % of Melamine |
| --- | --- | --- |
| F157AA220G: mutated TriA variant of SEQ ID NO: 2 (protein, Pseudomonas) MQTLSIQHGTLVTMDQYRRVLGDSWVHVQDGRIVALGVHAESVPPPADRVIDARGKVVLPGFINAHTHVNQILLRGGPSHGRQLYDWLFNVLYPGQKAMRPEDVAVAVRLYCAEAVRSGITTINDNADSAIYPGNIEAAMAVYGEVGVRVVYARMFADRMDGRIQGYVDALKARSPQVELCSIMEETAVAKDRITALSDQYHGTAGGRISVWPAPAITPGVTVEGMRWAQAFARDRAVMWTLHMAESDHDERLHWMSPAEYMECYGLLDERLQVAHCVYFDRKDVRLLHRHNVKVASQVVSNAYLGSGVAPVPEMVERGMAVGIGTDDGNCNDSVNMIGDMKFMAHIHRAVHRDADVLTPEKILEMATIDGARSLGMDHEIGSIETGKRADLILLDLRHPQTTPHHHLAATIVFQAYGNEVDTVLIDGNVVMENRRLSFLPPERELAFLEEAQSRATAILQRANMVANPAWRSL | 0% | 0% |
| E246Q: mutated TriA variant of SEQ ID NO: 2 (protein, Pseudomonas) MQTLSIQHGTLVTMDQYRRVLGDSWVHVQDGRIVALGVHAESVPPPADRVIDARGKVVLPGFINAHTHVNQILLRGGPSHGRQLYDWLFNVLYPGQKAMRPEDVAVAVRLYCAEAVRSGITTINDNADSAIYPGNIEAAMAVYGEVGVRVVYARMFFDRMDGRIQGYVDALKARSPQVELCSIMEETAVAKDRITALSDQYHGTAGGRISVWPAPAITPAVTVEGMRWAQAFARDRAVMWTLHMAQSDHDERLHWMSPAEYMECYGLLDERLQVAHCVYFDRKDVRLLHRHNVKVASQVVSNAYLGSGVAPVPEMVERGMAVGIGTDDGNCNDSVNMIGDMKFMAHIHRAVHRDADVLTPEKILEMATIDGARSLGMDHEIGSIETGKRADLILLDLRHPQTTPHHHLAATIVFQAYGNEVDTVLIDGNVVMENRRLSFLPPERELAFLEEAQSRATAILQRANMVANPAWRSL | 0% | 4% |
| S247A: mutated TriA variant of SEQ ID NO: 2 (protein, Pseudomonas) MQTLSIQHGTLVTMDQYRRVLGDSWVHVQDGRIVALGVHAESVPPPADRVIDARGKVVLPGFINAHTHVNQILLRGGPSHGRQLYDWLFNVLYPGQKAMRPEDVAVAVRLYCAEAVRSGITTINDNADSAIYPGNIEAAMAVYGEVGVRVVYARMFFDRMDGRIQGYVDALKARSPQVELCSIMEETAVAKDRITALSDQYHGTAGGRISVWPAPAITPAVTVEGMRWAQAFARDRAVMWTLHMAEADHDERLHWMSPAEYMECYGLLDERLQVAHCVYFDRKDVRLLHRHNVKVASQVVSNAYLGSGVAPVPEMVERGMAVGIGTDDGNCNDSVNMIGDMKFMAHIHRAVHRDADVLTPEKILEMATIDGARSLGMDHEIGSIETGKRADLILLDLRHPQTTPHHHLAATIVFQAYGNEVDTVLIDGNVVMENRRLSFLPPERELAFLEEAQSRATAILQRANMVANPAWRSL | 0% | 1% |
| E246D: mutated TriA variant of SEQ ID NO: 2 (protein, Pseudomonas) MQTLSIQHGTLVTMDQYRRVLGDSWVHVQDGRIVALGVHAESVPPPADRVIDARGKVVLPGFINAHTHVNQILLRGGPSHGRQLYDWLFNVLYPGQKAMRPEDVAVAVRLYCAEAVRSGITTINDNADSAIYPGNIEAAMAVYGEVGVRVVYARMFFDRMDGRIQGYVDALKARSPQVELCSIMEETAVAKDRITALSDQYHGTAGGRISVWPAPAITPAVTVEGMRWAQAFARDRAVMWTLHMADSDHDERLHWMSPAEYMECYGLLDERLQVAHCVYFDRKDVRLLHRHNVKVASQVVSNAYLGSGVAPVPEMVERGMAVGIGTDDGNCNDSVNMIGDMKFMAHIHRAVHRDADVLTPEKILEMATIDGARSLGMDHEIGSIETGKRADLILLDLRHPQTTPHHHLAATIVFQAYGNEVDTVLIDGNVVMENRRLSFLPPERELAFLEEAQSRATAILQRANMVANPAWRSL | 5% | 0% |
| S247N: mutated TriA variant of SEQ ID NO: 2 (protein, Pseudomonas) MQTLSIQHGTLVTMDQYRRVLGDSWVHVQDGRIVALGVHAESVPPPADRVIDARGKVVLPGFINAHTHVNQILLRGGPSHGRQLYDWLFNVLYPGQKAMRPEDVAVAVRLYCAEAVRSGITTINDNADSAIYPGNIEAAMAVYGEVGVRVVYARMFFDRMDGRIQGYVDALKARSPQVELCSIMEETAVAKDRITALSDQYHGTAGGRISVWPAPAITPAVTVEGMRWAQAFARDRAVMWTLHMAENDHDERLHWMSPAEYMECYGLLDERLQVAHCVYFDRKDVRLLHRHNVKVASQVVSNAYLGSGVAPVPEMVERGMAVGIGTDDGNCNDSVNMIGDMKFMAHIHRAVHRDADVLTPEKILEMATIDGARSLGMDHEIGSIETGKRADLILLDLRHPQTTPHHHLAATIVFQAYGNEVDTVLIDGNVVMENRRLSFLPPERELAFLEEAQSRATAILQRANMVANPAWRSL | 2% | 0% |
| S247V: mutated TriA variant of SEQ ID NO: 2 (protein, Pseudomonas) MQTLSIQHGTLVTMDQYRRVLGDSWVHVQDGRIVALGVHAESVPPPADRVIDARGKVVLPGFINAHTHVNQILLRGGPSHGRQLYDWLFNVLYPGQKAMRPEDVAVAVRLYCAEAVRSGITTINDNADSAIYPGNIEAAMAVYGEVGVRVVYARMFFDRMDGRIQGYVDALKARSPQVELCSIMEETAVAKDRITALSDQYHGTAGGRISVWPAPAITPAVTVEGMRWAQAFARDRAVMWTLHMAEVDHDERLHWMSPAEYMECYGLLDERLQVAHCVYFDRKDVRLLHRHNVKVASQVVSNAYLGSGVAPVPEMVERGMAVGIGTDDGNCNDSVNMIGDMKFMAHIHRAVHRDADVLTPEKILEMATIDGARSLGMDHEIGSIETGKRADLILLDLRHPQTTPHHHLAATIVFQAYGNEVDTVLIDGNVVMENRRLSFLPPERELAFLEEAQSRATAILQRANMVANPAWRSL | 2% | 3% |
| E246S: mutated TriA variant of SEQ ID NO: 2 (protein, Pseudomonas) MQTLSIQHGTLVTMDQYRRVLGDSWVHVQDGRIVALGVHAESVPPPADRVIDARGKVVLPGFINAHTHVNQILLRGGPSHGRQLYDWLFNVLYPGQKAMRPEDVAVAVRLYCAEAVRSGITTINDNADSAIYPGNIEAAMAVYGEVGVRVVYARMFFDRMDGRIQGYVDALKARSPQVELCSIMEETAVAKDRITALSDQYHGTAGGRISVWPAPAITPAVTVEGMRWAQAFARDRAVMWTLHMASSDHDERLHWMSPAEYMECYGLLDERLQVAHCVYFDRKDVRLLHRHNVKVASQVVSNAYLGSGVAPVPEMVERGMAVGIGTDDGNCNDSVNMIGDMKFMAHIHRAVHRDADVLTPEKILEMATIDGARSLGMDHEIGSIETGKRADLILLDLRHPQTTPHHHLAATIVFQAYGNEVDTVLIDGNVVMENRRLSFLPPERELAFLEEAQSRATAILQRANMVANPAWRSL | 1% | 0% |
| E246T: mutated TriA variant of SEQ ID NO: 2 (protein, Pseudomonas) MQTLSIQHGTLVTMDQYRRVLGDSWVHVQDGRIVALGVHAESVPPPADRVIDARGKVVLPGFINAHTHVNQILLRGGPSHGRQLYDWLFNVLYPGQKAMRPEDVAVAVRLYCAEAVRSGITTINDNADSAIYPGNIEAAMAVYGEVGVRVVYARMFFDRMDGRIQGYVDALKARSPQVELCSIMEETAVAKDRITALSDQYHGTAGGRISVWPAPAITPAVTVEGMRWAQAFARDRAVMWTLHMATSDHDERLHWMSPAEYMECYGLLDERLQVAHCVYFDRKDVRLLHRHNVKVASQVVSNAYLGSGVAPVPEMVERGMAVGIGTDDGNCNDSVNMIGDMKFMAHIHRAVHRDADVLTPEKILEMATIDGARSLGMDHEIGSIETGKRADLILLDLRHPQTTPHHHLAATIVFQAYGNEVDTVLIDGNVVMENRRLSFLPPERELAFLEEAQSRATAILQRANMVANPAWRSL | 3% | 0% |
| S247G: mutated TriA variant of SEQ ID NO: 2 (protein, Pseudomonas) MQTLSIQHGTLVTMDQYRRVLGDSWVHVQDGRIVALGVHAESVPPPADRVIDARGKVVLPGFINAHTHVNQILLRGGPSHGRQLYDWLFNVLYPGQKAMRPEDVAVAVRLYCAEAVRSGITTINDNADSAIYPGNIEAAMAVYGEVGVRVVYARMFFDRMDGRIQGYVDALKARSPQVELCSIMEETAVAKDRITALSDQYHGTAGGRISVWPAPAITPAVTVEGMRWAQAFARDRAVMWTLHMAEGDHDERLHWMSPAEYMECYGLLDERLQVAHCVYFDRKDVRLLHRHNVKVASQVVSNAYLGSGVAPVPEMVERGMAVGIGTDDGNCNDSVNMIGDMKFMAHIHRAVHRDADVLTPEKILEMATIDGARSLGMDHEIGSIETGKRADLILLDLRHPQTTPHHHLAATIVFQAYGNEVDTVLIDGNVVMENRRLSFLPPERELAFLEEAQSRATAILQRANMVANPAWRSL | 2% | 2% |
| N70G: mutated TriA variant of SEQ ID NO: 2 (protein, Pseudomonas) MQTLSIQHGTLVTMDQYRRVLGDSWVHVQDGRIVALGVHAESVPPPADRVIDARGKVVLPGFINAHTHVGQILLRGGPSHGRQLYDWLFNVLYPGQKAMRPEDVAVAVRLYCAEAVRSGITTINDNADSAIYPGNIEAAMAVYGEVGVRVVYARMFFDRMDGRIQGYVDALKARSPQVELCSIMEETAVAKDRITALSDQYHGTAGGRISVWPAPAITPAVTVEGMRWAQAFARDRAVMWTLHMAESDHDERLHWMSPAEYMECYGLLDERLQVAHCVYFDRKDVRLLHRHNVKVASQVVSNAYLGSGVAPVPEMVERGMAVGIGTDDGNCNDSVNMIGDMKFMAHIHRAVHRDADVLTPEKILEMATIDGARSLGMDHEIGSIETGKRADLILLDLRHPQTTPHHHLAATIVFQAYGNEVDTVLIDGNVVMENRRLSFLPPERELAFLEEAQSRATAILQRANMVANPAWRSL | 0% | 0% |
